Test results taken from US9175313B2, “Three-dimensional structure of isoprene synthase and its use thereof for generating variants” (Danisco US Inc., priority 2009, dated 2015).
Residue numbers refer to the chain shown, from its start. Names and notes keep the numbering of the source.

B1: L494P: P. alba IspS variant L494P; pDW101, strain DW399, SEQ ID NO: 69 (protein)
chain: MEARRSANYEPNSWDYDYLLSSDTDESIEVYKDKAKKLEAEVRREINNEKAEFLTLLELIDNVQRLGLGYRFESDIRGALDRFVSSGGFDAVTKTSLHGTALSFRLLRQHGFEVSQEAFSGFKDQNGNFLENLKEDIKAILSLYEASFLALEGENILDEAKVFAISHLKELSEEKIGKELAEQVNHALELPLHRRTQRLEAVWSIEAYRKKEDANQVLLELAILDYNMIQSVYQRDLRETSRWWRRVGLATKLHFARDRLIESFYWAVGVAFEPQYSDCRNSVAKMFSFVTIIDDIYDVYGTLDELELFTDAVERWDVNAINDLPDYMKLCFLALYNTINEIAYDNLKDKGENILPYLTKAWADLCNAFLQEAKWLYNKSTPTFDDYFGNAWKSSSGPLQLVFAYFAVVQNIKKEEIENLQKYHDTISRPSHIFRLCNDLASASAEIARGETANSVSCYMRTKGISEELATESVMNLIDETWKKMNKEKLGGSPFAKPFVETAINLARQSHCTYHNGDAHTSPDELTRKRVLSVITEPILPFERENLYFQGLEHHHHHH
B2: T536F: P. alba IspS variant T536F; pDW87, strain DW363, SEQ ID NO: 95 (protein)
chain: B1 chain with P494L, T536F

Experiments:
[1] = Differential scanning calorimetry, thermal midpoint (Tm); format: physicochemical
Method: Excessive heat capacity curves were measured using an ultrasensitive scanning high-throughput microcalorimeter, VP-Cap DSC (MicroCal, Inc., Northampton, Mass.). The standard procedure for Differential Scanning calorimetry (DSC) measurements and the theory of the technique is previously published (Freire, E. (1995) Differential Scanning calorimetry Methods. Mol. Biol. 41, 191-218). Approximately 500 μL of 0.5 mg/ml IspS (from strain MD09-167) or variant IspS-L494P (from strain DW399) and IspS-T536F (from strain DW363) (in the absence or presence of 5 mM sodium pyrophosphate) were scanned over a 30-100° C. temperature range. The same sample was then re-scanned to check the reversibility of the process. For IspS the thermal unfolding process was irreversible. The buffer used was 50 mM HEPES, 5 mM MgCl2, pH 7.4, with and without 5 mM sodium pyrophosphate. Sodium pyrophosphate was included for its ability to function as a substrate analog. A 200° C./hr scan rate was used to minimize any artifacts that may result from aggregation. The thermal midpoint (Tm) of the DSC curves was used as an indicator of the thermal stability. The thermal melting curves and the melting points for the wild type IspS and variants are shown in FIG. 56 (buffer only) and 57 (with 5 mM sodium pyrophosphate).

[2] = Small scale expression and yield of purified 6xHis-tagged IspS variants; conditions: BL21(λDE3)pLysS, 100 mL cultures
Method: N-terminally 6×His-tagged wild type IspS, IspS-L494P, and IspS-T536F were expressed and purified from strains MD09-167, DW399, and DW363, respectively. The growth procedure is suitable for histidine tagged enzymes expressed in BL21(λDE3)pLysS cells. A 3 ml of overnight culture was prepared for each 100 mL of planned growth. The appropriate antibiotics ([…] kanamycin, […] chloramphenicol) were added to 3 ml of LB medium in a 10 ml glass tube and was inoculated with 1 colony from a fresh plate of cells or directly from glycerol frozen cell stock. Cultures were grown at 30° C. overnight with shaking at ˜220 rpm. Day cultures were prepared in 100 mL of LB medium with appropriate antibiotics for each culture. Each 100 mL day culture was inoculated with 50 μl of overnight culture and grown at 37° C. with shaking at ˜220 rpm until the OD600 reached ˜0.4-0.6. Day cultures were then induced with 400 μM IPTG and allowed to continue growing at 30° C. with shaking at 220 rpm for ˜5-6 hours. […] Following Harvest, cells were used directly or stored at −80° C. until ready to process. […]
To buffer exchange the protein into a buffer suitable for protein assays and storage, a PD-10 column (GE Healthcare) was equilibrated with 25 mL PD-10 buffer (50 mM HEPES, 0.05 M NaCl, pH 7.4). […] The eluate was then analyzed by absorbance at 280 nm and SDS-PAGE gel and the samples were stored at −80° C.

[3] = buffer alone (50 mM HEPES, 5 mM MgCl2, pH 7.4)
[4] = in the presence of 5 mM sodium pyrophosphate

Row | Molecule | increase in the Tm vs wild type ([1]; buffer alone) | thermal melting point (Tm) [1, 3] | increase in the Tm vs wild type [1, 4] | thermal melting point (Tm) [1, 4] | expression level (yield of purified protein) compared to wild type, in words [2]
1 | B1 | 2.1 °C | 60.4 °C | 2.3 °C | 57.0 °C | expressed at higher levels than the wild type protein
2 | B2 | 3.8 °C | 62.1 °C | 4.7 °C | 59.4 °C | expressed at higher levels than the wild type protein
